# From article PMC7319049 (Nature, 2020)
# T1: Swi1 (S. cerevisiae, UniProt P09547 1-1314)
# T1 sequence: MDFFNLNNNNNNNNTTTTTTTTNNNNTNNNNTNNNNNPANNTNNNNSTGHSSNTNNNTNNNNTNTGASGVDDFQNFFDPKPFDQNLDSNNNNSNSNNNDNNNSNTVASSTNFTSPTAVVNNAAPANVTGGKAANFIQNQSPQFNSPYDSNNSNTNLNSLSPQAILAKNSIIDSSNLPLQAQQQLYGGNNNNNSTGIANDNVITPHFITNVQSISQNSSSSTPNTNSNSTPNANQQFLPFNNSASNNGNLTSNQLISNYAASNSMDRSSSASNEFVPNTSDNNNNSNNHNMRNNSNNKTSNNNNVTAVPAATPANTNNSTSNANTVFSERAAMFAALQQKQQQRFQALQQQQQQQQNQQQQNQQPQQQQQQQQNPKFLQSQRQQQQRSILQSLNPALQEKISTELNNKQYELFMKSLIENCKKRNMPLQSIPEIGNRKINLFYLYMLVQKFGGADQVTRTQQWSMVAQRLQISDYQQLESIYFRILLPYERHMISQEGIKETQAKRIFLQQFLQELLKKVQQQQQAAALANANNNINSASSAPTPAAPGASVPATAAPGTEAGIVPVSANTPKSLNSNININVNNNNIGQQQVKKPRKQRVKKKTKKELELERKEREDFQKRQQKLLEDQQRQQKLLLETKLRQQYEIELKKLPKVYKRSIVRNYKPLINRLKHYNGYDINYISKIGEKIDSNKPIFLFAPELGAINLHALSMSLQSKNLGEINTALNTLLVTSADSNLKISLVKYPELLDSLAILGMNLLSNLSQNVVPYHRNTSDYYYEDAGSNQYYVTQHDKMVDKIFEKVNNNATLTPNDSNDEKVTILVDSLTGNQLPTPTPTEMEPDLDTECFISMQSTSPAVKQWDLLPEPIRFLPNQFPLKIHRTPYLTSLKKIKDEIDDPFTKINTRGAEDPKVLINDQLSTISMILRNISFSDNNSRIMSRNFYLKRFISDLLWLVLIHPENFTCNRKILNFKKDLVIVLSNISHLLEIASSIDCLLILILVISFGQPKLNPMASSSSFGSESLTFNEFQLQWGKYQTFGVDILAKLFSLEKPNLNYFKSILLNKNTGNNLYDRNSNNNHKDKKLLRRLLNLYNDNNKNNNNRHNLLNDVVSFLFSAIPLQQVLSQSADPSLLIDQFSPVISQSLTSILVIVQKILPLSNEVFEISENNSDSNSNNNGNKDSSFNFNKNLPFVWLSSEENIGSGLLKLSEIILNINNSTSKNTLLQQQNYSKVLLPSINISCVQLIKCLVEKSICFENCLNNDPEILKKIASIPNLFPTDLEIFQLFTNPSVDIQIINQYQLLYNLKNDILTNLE
# B1: Swp82 (natural protein)
# chain: MLGEDEGNTVLEKGNNPSVKQGEVGAVFIVPKILIREHERVILKQILQILDQDELVQPPLDKFPYKKLELPKYIDELKTRDATNTSYKMIQLDAYGEKKVGSNGELFGGRHYLFNTFTFTAHMGVLLVLLQDVIKVLYQSNATHDEDEFIVQHDQILVMETSEEQTKFLAKNGVIPEESKGSFKYITARSAFVEFGASVIAGGQRIVDDYWESLAKKQNLSSHQRVFKLSTNLISKISLLRPSFQNNRISNANEISANTNNTCTISTSKFESQYPIVTEQPSAEIREAYIENFAKGEHISAIVPGQSISGTLELSAQFRVPRYHSKNSFQQALQMKAMDIPIGRHEELLAQYESQAPDGSASISLPNHIPSVNPSNKPIKRMLSSILDINVSSSKNKKSEENEMIKPMNKGQHKNNTSLNINGWKFESLPLKSAENSGKQQYYRGLPLYEKNTLLERLKQLTPNEIKELEHLHDAVFVNTGLQNVRKVRTKKWKKYWQYKAGIPIGLKRSQLDEFKNKYLKDVLAQTSVTTNFNEITNTDETITTKRVPNPNFLGNCNIKDFKPPYIYSHVNKVPQNVAGDKTAVKLDTEVKNTNANPVVATDPVAAKPDNLANFSNEVAMNN
# B2: Snf12 (natural protein)
# chain: MSKVMKPSNGKGSRKSSKAATPDTKNFFHAKKKDPVNQDKANNASQITPTVPHSHPSDMVIPDHLAELIPELYSFQQLVDSEKRLDHFIHLRNLHMKRMVAQWERSKLSQEFLYPHLNFPNVKFLRIFISNVSENQPWQMDTNNEADLMALENATWTMRIEGRLLDNVQANDPAREKFSSFIESIVVDFKNKENDNVPSTKFNAAPEENATEGPSDKKLNLNLPLQFSLPNGDNSTTTNTDQNNATMGEETAKKDMSSTTPKLESVKWQYDPNNPVDFDGLDIKRVGSENVECTISILRKSSPEEPFMSYSPQLTAIIGLKSGTSHDAIFSIYKYIHLNELLTNDESAFENLMGNRNNHNSNTSTSKMLDAASSQVSIVKLDTQLITLLPSSLKESSPDTMKLTDLLSLINSTHLLPLQPIEIDYTVRVDKASTYGELVLDIEVPDVNALKFNNTQRESQIGAAELNENARELEQIKPKIALQDKEITSVLSNLHESNKRYRFFKKISEDPVKALNECIASTSNALKVLSGDEGYNEDMVRRANFYKENEAMLRENIEVILSNGRM
# B3: Swi3 (natural protein)
# chain: MENTLGEGSTVNASVDVDQHGNDNNSDSNANAAVAGVANTDTAGEESQQQDESLKDEATVPNTRDAESEAITVTAKQQPTMQANKLDSQETPSTEESRAQNVFGQDNEDSDNLFGETESSVSNNEANTPSIPTNPVDNENNKPAIKEDSTIQDSNGDVKNMEDVKIQKEEEPENNTVIEGVKEESQPDENTKEMDEVEEDDEDDDQPMISPDNSIFGDTKSESKQLGNTSSVANTPSEIPDAHKAEQEDIIEKTESVDKKVDSGEERNEQEREIMNDHSKSANPKKTTITRVEPETFEIPQAHEIVIPSYSKWFNLEKIHSIEVQSLPEFFTNRIPSKTPEVYMRYRNFMVNSYRLNPNEYFSVTTARRNVSGDAAALFRLHKFLTKWGLINYQVDSKLLPKNIEPPLTSQYSTRHDAPRGLFPFESYKPSVQLPDMAKLKKMMNTSDSESTLYKYLKESKRKYDEITHPPSTTDDENGDKNDNGGKMNNEVSTSTSMTGDANLLEEGETSRPLKKVKILEQIDENWSKEDLQKLLKGIQEFGADWYKVAKNVGNKSPEQCILRFLQLPIEDKFLYGDGNGKGDNDNGLGPLKYAPHLPFSKSENPVLSTIAFLVGLVNPKTVQSMTQRAIQSAESIKSQKEEISDQKPIEHIKEGSEIAISSLGYRSHIFATNEERQMNFLTNELIRLQMEKLDAKLNHLKKLEKFMELERKTLERQQENLLIQRLNFNQNSSKIVNVLSKCLNLISDSNINNSSVAEKEEIRSQIDHFKSMLSKPETLSIGKNPFNKPNIETGENHNGQSISNENDVKPISIEAPQFYRYWSA
# Experiments:
# Experiment in all cases: cryo-EM structure
# [1] = molecular target: Snf5 (S. cerevisiae, UniProt P18480 1-905)
# Snf5, sequence (P18480 whole entry): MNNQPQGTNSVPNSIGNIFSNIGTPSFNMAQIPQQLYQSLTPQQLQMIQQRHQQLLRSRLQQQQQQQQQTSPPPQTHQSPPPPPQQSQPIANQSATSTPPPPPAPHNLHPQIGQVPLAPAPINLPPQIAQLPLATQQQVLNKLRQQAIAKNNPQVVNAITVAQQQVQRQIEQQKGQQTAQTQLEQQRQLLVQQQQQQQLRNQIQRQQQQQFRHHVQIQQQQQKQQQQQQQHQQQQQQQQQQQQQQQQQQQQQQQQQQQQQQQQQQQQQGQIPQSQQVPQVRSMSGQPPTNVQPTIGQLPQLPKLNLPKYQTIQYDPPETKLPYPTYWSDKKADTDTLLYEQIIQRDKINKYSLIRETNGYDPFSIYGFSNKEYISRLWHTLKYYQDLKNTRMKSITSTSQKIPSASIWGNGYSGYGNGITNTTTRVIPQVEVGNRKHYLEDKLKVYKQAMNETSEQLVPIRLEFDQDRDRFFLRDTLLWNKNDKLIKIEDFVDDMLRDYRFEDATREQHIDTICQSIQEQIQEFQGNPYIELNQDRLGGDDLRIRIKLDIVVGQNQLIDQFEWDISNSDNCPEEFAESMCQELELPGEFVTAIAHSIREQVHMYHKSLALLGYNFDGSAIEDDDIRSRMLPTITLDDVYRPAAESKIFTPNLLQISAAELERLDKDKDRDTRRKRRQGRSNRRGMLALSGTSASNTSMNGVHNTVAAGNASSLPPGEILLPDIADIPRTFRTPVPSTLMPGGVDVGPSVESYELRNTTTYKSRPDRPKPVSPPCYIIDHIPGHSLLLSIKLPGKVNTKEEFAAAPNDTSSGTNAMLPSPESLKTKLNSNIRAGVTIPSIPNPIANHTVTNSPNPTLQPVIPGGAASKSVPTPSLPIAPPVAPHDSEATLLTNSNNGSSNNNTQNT
# [2] = molecular target: B3
# [3] = molecular target: T1, Swi1
# [4] = molecular target: Snf2 (S. cerevisiae, UniProt P22082 1-1703)
# Snf2, sequence (P22082 whole entry): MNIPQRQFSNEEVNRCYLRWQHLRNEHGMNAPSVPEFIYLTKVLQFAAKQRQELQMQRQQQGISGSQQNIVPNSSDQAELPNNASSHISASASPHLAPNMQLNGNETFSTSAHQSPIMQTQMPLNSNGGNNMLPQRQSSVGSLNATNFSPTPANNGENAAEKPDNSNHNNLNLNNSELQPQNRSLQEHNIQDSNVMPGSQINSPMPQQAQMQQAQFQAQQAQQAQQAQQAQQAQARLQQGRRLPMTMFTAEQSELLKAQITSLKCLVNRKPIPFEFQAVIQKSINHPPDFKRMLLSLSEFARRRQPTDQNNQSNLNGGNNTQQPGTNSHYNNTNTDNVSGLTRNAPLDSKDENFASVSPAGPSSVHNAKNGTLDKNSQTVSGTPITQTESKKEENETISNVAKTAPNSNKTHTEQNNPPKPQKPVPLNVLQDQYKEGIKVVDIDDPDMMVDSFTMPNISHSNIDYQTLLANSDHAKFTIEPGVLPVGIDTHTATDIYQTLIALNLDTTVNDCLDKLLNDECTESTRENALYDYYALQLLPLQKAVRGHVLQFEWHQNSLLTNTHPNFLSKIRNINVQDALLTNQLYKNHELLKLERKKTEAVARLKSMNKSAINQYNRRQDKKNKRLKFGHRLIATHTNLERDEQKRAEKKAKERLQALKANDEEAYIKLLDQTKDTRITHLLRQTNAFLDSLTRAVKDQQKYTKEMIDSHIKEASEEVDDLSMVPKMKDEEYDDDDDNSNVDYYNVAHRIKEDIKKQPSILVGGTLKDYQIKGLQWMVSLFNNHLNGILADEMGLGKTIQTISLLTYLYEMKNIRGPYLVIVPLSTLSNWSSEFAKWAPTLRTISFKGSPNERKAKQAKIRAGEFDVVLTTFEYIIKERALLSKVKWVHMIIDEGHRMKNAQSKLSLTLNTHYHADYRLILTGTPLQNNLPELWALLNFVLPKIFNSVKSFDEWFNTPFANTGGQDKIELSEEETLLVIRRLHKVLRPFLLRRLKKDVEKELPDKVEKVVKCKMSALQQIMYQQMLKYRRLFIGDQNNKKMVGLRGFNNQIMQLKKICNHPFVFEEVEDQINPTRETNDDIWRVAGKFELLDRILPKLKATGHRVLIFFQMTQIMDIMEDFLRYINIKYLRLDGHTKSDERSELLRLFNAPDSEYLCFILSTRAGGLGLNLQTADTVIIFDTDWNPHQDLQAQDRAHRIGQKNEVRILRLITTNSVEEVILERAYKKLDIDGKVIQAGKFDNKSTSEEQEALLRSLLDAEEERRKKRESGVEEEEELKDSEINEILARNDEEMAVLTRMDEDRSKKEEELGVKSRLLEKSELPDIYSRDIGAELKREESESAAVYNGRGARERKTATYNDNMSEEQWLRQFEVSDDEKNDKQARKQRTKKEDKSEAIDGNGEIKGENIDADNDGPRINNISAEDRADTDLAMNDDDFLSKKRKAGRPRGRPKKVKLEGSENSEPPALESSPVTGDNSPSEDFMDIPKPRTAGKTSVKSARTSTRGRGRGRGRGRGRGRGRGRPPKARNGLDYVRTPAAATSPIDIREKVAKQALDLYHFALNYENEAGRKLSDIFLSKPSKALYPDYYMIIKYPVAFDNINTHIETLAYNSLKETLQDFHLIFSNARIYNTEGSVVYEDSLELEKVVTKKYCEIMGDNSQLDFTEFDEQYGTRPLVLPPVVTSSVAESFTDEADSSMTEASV
# [5] = molecular target: the molecule itself
binding result [1],binding result [2],binding result [3],binding result [4],Binder,stoichiometry N [5]
binds,binds,,,B1,
,binds,binds,,B2,
binds,,binds,binds,B3,2
